Biological target: TX/50 cell-version rHA1 (A/Texas/50/2012(H3N2) HA1) (Influenza A virus …, UniProt R4L1D1, strain)
Experiment: BLI
Details: one partner purified

B1: monoclonal antibody FluA-20 (antibody, V domains shown)
VH: QVQLEESGPGLVKPSETLSLTCSVSGVSVTSDIYYWTWIRQPPGKGLEWIGYIFYNGDTNYNPSLKSRVTMSIDTSKNEFSLRLTSVTAADTAVYFCARGTEDLGYCSSGSCPNHWGQGTLVTVSS
VL: DIVMTQSPSSLSASIGDRVTITCRPSQNIRSFLNWFQHKPGKAPKLLIYAASNLQSGVPSRFSGSGSGTEFTLTIRSLQPEDFATYYCQQSYNTPPTFGQGTKVEIK
notes: also called FluA-20 mAb; pan-H3 anti-HA1 mAb; copies: 2 + 2
binding result: binds

— PMC12669751, “Immunodominant antibodies against hemagglutinin in ferrets following infection with 2018 to 2019 influenza vaccine strains” (NPJ Vaccines, 2025)
